This note sets out measurements from US20250353926A1 (ENLAZA THERAPEUTICS, published 2025).

The target of assay [1] is T1, Biotinylated his-tagged human PSMA (human, UniProt Q04609 44-750, limits assumed, biotinylated (site not stated)).
T1 construct: also called immobilized PSMA; not shown: his tag
Nature of the assay: BLI, biotinylated his-tagged human PSMA on streptavidin sensors, pH 7.4; non 1:1 binding (covalent crosslinking); pH 7.4; non 1:1 binding (crosslinking to PSMA).

For assay [2], the target named is T1, Biotinylated his-tagged human PSMA. Nature of the assay: BLI, biotinylated his-tagged human PSMA on streptavidin sensors, pH 7.4; covalent crosslinking; pH 7.4; apparent KD under covalent crosslinking.
Assay [3] shares this target. In words: BLI, biotinylated his-tagged human PSMA on streptavidin sensors, pH 5.7.
Assay [4] shares this target. In words: BLI, biotinylated his-tagged human PSMA on streptavidin sensors, pH 7.4; covalent crosslinking.
The target in assay [5] is T2, PSMA expressed on target cells (PC3pip cells, high density; 22Rv1 cells, low density) (UniProt Q04609 1-750, limits assumed). Nature of the assay: cell-based or functional assay.
The target of assay [6] is T2, PSMA expressed on target cells (PC3pip …). In words: cell-based or functional assay. The source holds these as a separate data set.
Assay [7] shares this target. Nature of the assay: cell-based or functional assay. The source holds these as a separate data set.
Assay [8] has the same target. Nature of the assay: cell-based or functional assay. This is another data set of the same source.
Assay [9] concerns the target T3, biotin-labeled CD16a (Acro P/N CDA-H82E8) (human, UniProt P08637 17-208, biotin-labeled (site not stated)).
T3 construct: also called recombinant human CD16a; immobilized CD16a
Nature of the assay: BLI, biotin-labeled CD16a on streptavidin biosensors, pH 7.4.

Assay [10] concerns the target T2, PSMA expressed on target cells (PC3pip …). In words: cell-based or functional assay. The source holds these as a separate data set.
The target is the same in assay [11]. In words: cell-based or functional assay. The source holds these as a separate data set.
The target is the same in assay [12]. Nature of the assay: cell-based or functional assay. This is another data set of the same source.

T1 sequence (Q04609 44-750 limits assumed): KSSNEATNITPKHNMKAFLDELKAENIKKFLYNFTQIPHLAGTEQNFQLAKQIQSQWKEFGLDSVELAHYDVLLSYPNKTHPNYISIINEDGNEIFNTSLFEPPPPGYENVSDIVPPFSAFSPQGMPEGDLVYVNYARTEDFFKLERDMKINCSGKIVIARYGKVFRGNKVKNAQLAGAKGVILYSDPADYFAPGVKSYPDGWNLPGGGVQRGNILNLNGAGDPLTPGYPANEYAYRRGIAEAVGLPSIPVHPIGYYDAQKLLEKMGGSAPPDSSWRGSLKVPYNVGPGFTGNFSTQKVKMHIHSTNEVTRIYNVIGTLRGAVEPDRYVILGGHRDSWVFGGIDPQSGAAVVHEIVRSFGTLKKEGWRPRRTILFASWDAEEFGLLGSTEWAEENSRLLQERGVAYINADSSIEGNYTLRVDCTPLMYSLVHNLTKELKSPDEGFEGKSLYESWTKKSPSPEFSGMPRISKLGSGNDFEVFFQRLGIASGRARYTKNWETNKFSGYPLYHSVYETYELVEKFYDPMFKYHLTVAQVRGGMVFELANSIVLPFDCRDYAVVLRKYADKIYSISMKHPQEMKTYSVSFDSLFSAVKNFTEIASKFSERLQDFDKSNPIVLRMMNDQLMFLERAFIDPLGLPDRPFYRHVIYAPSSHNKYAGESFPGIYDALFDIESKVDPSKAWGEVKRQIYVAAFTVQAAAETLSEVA
T2 sequence (Q04609 whole entry): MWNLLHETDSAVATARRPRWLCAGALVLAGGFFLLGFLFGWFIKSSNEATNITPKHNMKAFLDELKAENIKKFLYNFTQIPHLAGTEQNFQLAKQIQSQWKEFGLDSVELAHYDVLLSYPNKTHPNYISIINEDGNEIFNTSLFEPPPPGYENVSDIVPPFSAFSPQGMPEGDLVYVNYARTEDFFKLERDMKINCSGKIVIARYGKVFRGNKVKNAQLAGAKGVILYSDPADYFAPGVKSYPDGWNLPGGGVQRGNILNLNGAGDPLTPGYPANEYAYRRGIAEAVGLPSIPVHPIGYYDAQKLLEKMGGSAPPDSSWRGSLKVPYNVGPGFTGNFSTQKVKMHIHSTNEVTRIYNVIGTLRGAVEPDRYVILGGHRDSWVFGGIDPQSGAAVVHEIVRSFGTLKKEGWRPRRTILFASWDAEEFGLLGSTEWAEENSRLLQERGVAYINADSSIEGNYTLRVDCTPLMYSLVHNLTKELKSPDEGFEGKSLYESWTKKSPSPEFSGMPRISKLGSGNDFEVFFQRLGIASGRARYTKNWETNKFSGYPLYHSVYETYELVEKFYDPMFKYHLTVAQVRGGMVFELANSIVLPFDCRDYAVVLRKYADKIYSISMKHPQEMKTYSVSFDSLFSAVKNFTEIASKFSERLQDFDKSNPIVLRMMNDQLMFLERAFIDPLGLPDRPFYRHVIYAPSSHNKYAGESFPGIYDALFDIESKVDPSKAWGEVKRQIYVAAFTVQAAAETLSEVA
T3 sequence (P08637 17-208 limits assumed): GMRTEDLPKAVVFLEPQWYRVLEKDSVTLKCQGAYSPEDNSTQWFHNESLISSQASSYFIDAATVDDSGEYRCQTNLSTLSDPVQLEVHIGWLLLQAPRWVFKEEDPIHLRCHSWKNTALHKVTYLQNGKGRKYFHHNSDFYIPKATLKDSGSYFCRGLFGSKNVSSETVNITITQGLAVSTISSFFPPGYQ

B1: C22 (C37-L3-C35) (bispecific antibody)
chain: EVQLVESGGGLVQPGESLTLSCVVAGSIFSFAMSWYRQAPGKERELVARIGSDDRVTYADSVKGRFTISRDNIKRTAGLQMNSLKPEDTAVYYCNAQTDLRDWTVREYWGQGTQVTVSSGGGGSGGGGSGGGGSGGGGSQVQLQESGGGSVEAGGSLRLSCARSGWPYSTYSMNWFRQAPGKEREAVAGISSTMSGIIFAESKAGQFTISQDNAKNTVYLQMNNLKPEDTAIYYCAARRXFSLSSSSDDFDYWGQGTQVTVSSAAAYPYDVPDYGSSPSTPPTPSPSTPPHHHHHH
modifications: FSY (fluorosulfonyltyrosine) at the position printed X in SEQ ID NO: 37 (position 101 of the anti-PSMA sdAb domain)
notes: anti-CD16a sdAb C37 - 4x(G4S) - anti-PSMA sdAb-FSY C35; entry holds HA tag, SP tag and His6; also called C22 (FSY); FSY-containing bispecific construct
B1: the on-rate (kon) in assay [1] turned out to be 12800 M⁻¹ s⁻¹; in assay [3], 40700 M⁻¹ s⁻¹; in assay [9] it was 58800 M⁻¹ s⁻¹. Besides, the Kd in assay [2] was < 1 nM; in [3], ≤ 1140 nM; in assay [9], 1.48 nM. Besides, the dissociation rate constant (koff) in assay [3] was 0.0465 s⁻¹; in assay [4], < 1e-07 s⁻¹; in [9] it was 8.69e-05 s⁻¹. Besides, the “EC50; ADCC luciferase reporter assay (Jurkat CD16a V158 reporter cells), PC3pip 24 h continuous” value in assay [5] is 0.219 nM. In addition, in [6], the “EC50 [nM]; NK cell-mediated killing of PC3pip cells, 5 h washout, 20 h incubation” value stood at 0.188 nM. The “EC50 [nM]; primary human NK cell-mediated killing of PC3pip cells, no washout, 20 h incubation” value in assay [7] worked out at 0.066 nM. For the same molecule, the “EC50; ADCC reporter assay, PC3pip 4 h washout, 24 h endpoint” value in [8] was determined as 0.667 nM. The “EC50; ADCC reporter assay, 22Rv1 4 h washout, 24 h endpoint” value in assay [10] came out at 3.19 nM. Further, the “fold potency against C25; NK cell-mediated killing of PC3pip cells, 5 hr incubation and washout” value in assay [11] is 140 fold. In addition, the “fold potency against C25; NK cell-mediated killing of PC3pip cells, test article present throughout” value in assay [11] was determined as 106 fold. Moreover, in [12], the “EC50; ADCC reporter assay, 22Rv1 24 h continual” value amounted to 0.54 nM.
